According to patent publication US20060134099A1:

Molecular target: dog street rabies virus DRV-4
Assay: cell-based or functional assay

B1: plant-derived human rabies monoclonal antibody MAb^P (rabies human MAb S057 expressed in transgenic (antibody, V domains shown)
VH: QVQLVQSGAEVKKPGSSVKVSCKASGGTFNRYTVNWVRQAPGQGLEWMGGIIPIFGTANYAQRFQGRLTITADESTSTAYMELSSLRSDDTAVYFCARENLDNSGTYYYFSGWFDPWGQGTLVTVSS
VL: QSALTQPRSVSGSPGQSVTISCTGTSSDIGGYNFVSWYQQHPGKAPKLMIYDATKRPSGVPDRFSGSKSGNTASLTISGLQAEDEADYYCCSYAGDYTPGVVFGGGTKLTVLG
  Virus neutralizing antibody (VNA) titer, RFFIT: 81 IU/ml
